Laboratory results taken from patent publication US12331310B2, “Cell membrane penetrating conjugates for gene editing” (priority 2019, dated 2025).
Values joined by “and” are separate entries in the source; they are usually repeats but may differ in a detail not shown here. Equal values may be shown once.

B1: AlbG: recombinant β helical pentapeptide-repeat protein AlbG, amino acid sequence SEQ ID NO: 1 (protein)
chain: MPAKTLESKDYCGESFVSEDRSGQSLESIRFEDCTFRQCNFTEAELNRCKFRECEFVDCNLSLISIPQTSFMEVRFVDCKMLGVNWTSAQWPSVKMEGALSFERCILNDSLFYGLYLAGVKMVECRIHDANFTEADCEDADFTQSDLKGSTFHNTKLTGASFIDAVNYHIDIFHNDIKRARFSLPEAASLLNSLDIELSD
modifications: Amino acid sequence of AlbG protein
B2: EfsQNR: recombinant β helical pentapeptide-repeat protein EfsQNR, amino acid sequence SEQ ID NO: 2 (protein)
chain: GSHMKITYPLPPNLPEQLPLLTNCQLEDEAILENHLYQQIDLPNQEVRNLVFRDAVFDHLSLANGQFASFDCSNVRFEACDFSNVEWLSGSFHRVTFLRCNLTGTNFADSYLKDCLFEDCKADYASFRFANFNLVHFNQTRLVESEFFEVTWKKLLLEACDLTESNWLNTSLKGLDFSQNTFERLTFSPNYLSGLKVTPEQAIYLASALGLVIT
modifications: Amino acid sequence of EfsQNR protein

Key:
Assay type in all cases: cell-based
[1] = system: HeLa cells; experiment: Cellular uptake of drug (ruthenium metal complex), monitored by MTT assay; details: 24 hours, uptake correlated to cell death by MTT assay
Method: Cellular uptake of drug—HeLa cells were used for determining the enhanced uptake of the drug using the cell penetrating conjugate of the present invention. HeLa cells were seeded at a concentration of 10,000 in a 96-well plate and allowed to grow for 6-8 hours. Ruthenium metal complex and EfsQNR were mixed in different ratios of 1:1, 1:2, and 1:3 to form a conjugate, which was subsequently added to the cells. […] The cell death after 24 hours was monitored by MTT assay as described previously and was correlated to the percentage uptake of ruthenium-EfsQNR conjugate by HeLa cells.
FIG. 16 depicts the cellular uptake of the ruthenium metal complex Ru(CO)3Cl glycinate in HeLa cells. The ruthenium metal complex was conjugated with EfsQNR protein to form a conjugate consisting of ruthenium metal complex-EfsQNR. The HeLa cells were treated with the ruthenium metal complex-EfsQNR conjugate as described above (see “Cellular penetration studies” above) and uptake of the complex was detected by checking the viability of the cells by performing MTT assay as described previously. […] Therefore, it can be ascertained that the conjugate comprising EfsQNR protein facilitated 50-fold higher cellular uptake as compared to ruthenium metal complex alone. […]

[2] = system: drug resistant strains of bacteria (Pseudovibrio sp. Ad37/5/13/14 and Enterobacter); experiment: Uptake of A-520 labelled proteins in bacteria; details: protein labelled with green fluorescent dye (A-520), 10 μM, 24 hours
Method: (§1) The uptake of labelled proteins was checked by treating E-coli and yeast (Kluveromyces) cells with different labelled proteins such as AlbG (SEQ ID NO: 1), EfsQNR (SEQ ID NO: 2). E coli or Kluveromyces cells were inoculated and grown overnight until OD reached 0.6. The cells were diluted to 50 times and 3 micromolar labelled protein (conjugate) was added. The cells were further grown under standard growth condition (37° C. shaking condition) for 24 h. The treated cells were then centrifuged and washed in PBS for 3-4 times. Then the cells were dispersed in 100 microliter PBS and then imaged in fluorescence/confocal microscope.
(§2) • Respective bacteria and yeast strains were inoculated the day before the experiment and allowed to grow overnight; • The cells were centrifuged and 2 ml fresh media was added; • 100-200 μL of cells were added to the mixture; • 10 μM of green labelled CPP was added; • Fresh media was added to bring the volume to 1 mL; • After 24 hours the treated cells were centrifuged and washed in PBS 3-4 times; • the cells were dispersed in 100 microliter PBS and then imaged in fluorescence/confocal microscope (FIGS. 25 and 26). […]

[3] = system: drosophila embryos; experiment: Uptake of A-520 labelled proteins in drosophila embryos; details: protein labelled with green fluorescent dye (A-520), 10 μM, 2 h
[4] = system: HeLa cells; experiment: MTT toxicity assay of AlbG and EfsQNR proteins; details: 30 μM protein; for viability as compared to the control cells: MTT; for absorbance values at 570 nm in MTT assay: triplicates, control wells 1.341-1.413
Method: Toxicity assay—The industry-standard MTT assay (ex-Sigma Aldrich) was performed to analyse the toxicity of β-helical protein-cytotoxic drug conjugates against mammalian cells, for example HeLa cells. The cells were cultured by using standard protocol. One million cells were seeded in confocal plates (1 cm dish), grown for 6-8 h. A mixture of the cytotoxic drug and the EfsQNR protein (mixed at a ratio of 2:1) was added to the cells and incubated at room temperature for 15 minutes to 24 h to 72 h. After the incubation, the cells were washed with PBS and treated with MTT and further incubated for 24 hours. The cells were then washed and analysed for absorbance values at 570 nm. Viable cells with active metabolism convert MTT into a purple coloured formazan product with an absorbance maximum near 570 nm. Dead cells cannot convert MTT into formazan therefore, by analysing the absorbance values at 570 nm percentage of viable cells can be calculated for a given protein or any other molecule.
MTT assay as described previously was employed to study toxicity of AlbG and EfsQNR proteins against HeLa cells. For the toxicity assay, samples of Placebo, control, AlbG (30 μM) and EfsQNR (30 μM) were used in triplicates. On observing the values, it can be appreciated that the cells treated with 30 μM of AlbG and 30 μM of EfsQNR display 95% viability as compared to the control cells.
The placebo for this experiment was 20 mM Tris buffer of pH 8.0, whereas, the control considered was only HeLa cells without adding any protein or other substrate.

[5] = system: yeast cells (Saccharomyces cerevisiae, Kluveromyces marxianus and Candida albicans); experiment: Uptake of A-520 labelled proteins in yeast cells; details: protein labelled with green fluorescent dye (A-520), 10 μM, 24 hours
Method: as §1, §2

[6] = system: plant cells (Arabidopsis); experiment: Uptake of A-520 labelled proteins in plant cells; details: protein labelled with green fluorescent dye (A-520), 20 μM, 24 hours
Method: • Respective bacteria and yeast strains were inoculated the day before the experiment and allowed to grow overnight; • The cells were centrifuged and 2 ml fresh media was added; • 100-200 μL of cells were added to the mixture; • 10 μM of green labelled CPP was added; • Fresh media was added to bring the volume to 1 mL; • After 24 hours the treated cells were centrifuged and washed in PBS 3-4 times; • the cells were dispersed in 100 microliter PBS and then imaged in fluorescence/confocal microscope (FIGS. 25 and 26). Protocol for Uptake in Plant Cells (Arabidopsis): • Plants were grown for 7 days prior to the experiment; • 20 μM of different cell-penetrating proteins such as AlbG (SEQ ID NO: 1), EfsQNR (SEQ ID NO: 2) labelled with a green fluorescent dye (A-520) were added to the plants in buffer [3 plants grown for 7 days] in 500 μL PBS; • The mixture was placed in a growth room for 24 hours under standard growth conditions (kept static in a room of continuous supply of light and 23° C. temperature); • The plants were washed with PBS 3 times and fresh PBS was then added and cells visualized under microscope. Non-coloured cells such as the cells of the roots and stems were chosen for visualisation to avoid interference (FIGS. 23 and 24). […]

[7] = system: zebrafish embryos; experiment: Uptake of A-520 labelled proteins in zebrafish embryos; details: protein labelled with green fluorescent dye (A-520), 10 μM, 2 h

| Molecule | cellular uptake [1] | uptake observed by confocal laser scanning microscopy [2] | uptake observed by confocal laser scanning microscopy [3] | viability as compared to the control cells [4] | absorbance values at 570 nm in MTT assay [4] | uptake observed by confocal laser scanning microscopy [5] | uptake observed by confocal laser scanning microscopy [6] | uptake observed by confocal laser scanning microscopy [7] |
| --- | --- | --- | --- | --- | --- | --- | --- | --- |
| NCC(=O)O.[C-]#[O+].[C-]#[O+].[C-]#[O+].[Cl][Ru] [ruthenium metal complex, Ru(CO)3Cl glycinate] | 0.5% | – | – | – | – | – | – | – |
| B1 | – | taken up | taken up | 95% | 1.03 and 0.932 and 1.002 | taken up | taken up | taken up |
| B2 | – | taken up | taken up | 95% | 0.901 and 1.111 and 0.971 | taken up | taken up | taken up |
